The record followed here is patent US20200331998A1 (ALLOGENE THERAPEUTICS, published 2020).

In assay [1] the target is T1, m4G7 hFab 8×His (human).
T1 construct: Immunogen and Biacore analyte; also called 4G7-human Fab-8×His fusion protein (E2153); m4G7-Fab; not shown: It lies between the VH and the 8xHis tag and is left out
In words: SPR (Biacore, 25° C.), biotinylated antibody captured on CAP chip, m4G7-hFab as analyte. The protocol:
(§1) Anti-m4G7 purified sub-clone antibodies were tested for binding to m4G7-hFab. Blocking effect was determined using a sandwich assay and binding confirmation to […] was determined using a Biacore assay at 25° C. […] Sensor chip CAP (CAPture chip) #505 was used as a surface. After rehydrating the sensor chip CAP with water at 42° C. for 1 hour, the chip was dried with compressed air. The surface of the chip was conditioned using triplicate 1 min injections of regeneration solution at 10 μl/min. The regeneration solution included 3 parts of Regeneration Stock 1 (8 M guanidine-HCl) with 1 part Regeneration Stock 2 (1 M NaOH). Capture of Biotin CAPture reagent for 5 min at 2 μl/min was followed by capture of biotinylated Fusion E2153 anti-m4G7 purified sub-clones antibodies and control antibodies at 10 μg/ml for 1 min at 10 μl/min.
(§2) For the kinetics assay, the buffer and m4G7-hFab at 1 nM, 10 nM, and 100 nM were injected for 2 min at 30 μL/min followed by 5 min dissociation.
A general note: SPR reads the build-up and loss of mass on a sensor chip optically.

Assay [2] deals with T2, hCD19-HIS-AVI (human, UniProt P15391 20-291, limits assumed).
T2 construct: not shown: His and Avi tags
T2 sequence (looked up): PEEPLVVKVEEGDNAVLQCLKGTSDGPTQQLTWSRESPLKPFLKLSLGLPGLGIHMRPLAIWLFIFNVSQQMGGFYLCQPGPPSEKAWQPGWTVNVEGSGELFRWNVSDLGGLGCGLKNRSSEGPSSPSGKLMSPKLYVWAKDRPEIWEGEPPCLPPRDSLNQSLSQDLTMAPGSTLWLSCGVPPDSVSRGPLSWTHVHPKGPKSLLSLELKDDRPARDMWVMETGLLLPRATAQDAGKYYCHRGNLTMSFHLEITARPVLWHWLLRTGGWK
Put plainly: SPR (Biacore, 25° C.) sandwich assay with buffer/hCD19 injections. On the procedure: as §1
The blocking effect of m4G7-hFab binding to hCD19 by the purified anti-Ids sub-clones from Fusion E2153 was determined by the sandwich assay at 25° C. Sample 1 was injected for 2 min at 30 μL/min followed by 10 sec in buffer then Sample 2 was injected for 2 min at 30 μL/min followed by 3 min dissociation: […]

Assay [3] addresses T1, m4G7 hFab 8×His. In words: Biacore SPR at 25 °C, biotinylated antibody captured on CAP chip, m4G7-hFab injected, 1:1 Binding fit printed under the sensorgram; the text (Table 3) calls this clone very high affinity, outside instrument limits. On the procedure:
as §1, §2

T1 sequence (VH, as listed by the source limits assumed, chain 1 of 2): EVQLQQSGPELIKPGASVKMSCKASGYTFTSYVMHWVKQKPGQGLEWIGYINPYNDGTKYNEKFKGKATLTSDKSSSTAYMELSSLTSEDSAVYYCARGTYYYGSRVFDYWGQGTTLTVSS
T1 sequence (VL, as listed by the source limits assumed, chain 2 of 2): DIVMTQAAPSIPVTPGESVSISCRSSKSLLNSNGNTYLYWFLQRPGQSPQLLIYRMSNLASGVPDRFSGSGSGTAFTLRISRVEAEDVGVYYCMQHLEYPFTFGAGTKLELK

B1: E2153.2H8.A8 (antibody, V domains shown)
VH: QVQLQQSGAELVKPGASVKVSCKAFGYTFTTYPIEWMRQNHGKSLEWIGNFHPYNDDTRYNEKFKDKAKLTVEKSSSTVYLELSRLTYDDSAVYYCTRGNDYDLYGMDYWGQGTSVTVSS
VL: DIKMTQSPSSMYASLGERVTITCKASQDINTYLTWFQQKPGKSPKTLIYRANRLVDGVPSRFSGSGSGQDYSLTISSLEYEDMGIYYCLQCDDFPLTFGAGTKLELKR
notes: Mouse IgG1/kappa hybridoma antibody; Biotinylated for the Biacore assays; also called Clone A8; anti-UCART19 idiotype antibody A8
The term Kd denotes the concentration at which binding is half-saturated. A high value points to a looser complex. The koff is the first-order rate constant of dissociation. Read a low koff as a long-lived complex. The kon is a measure of how fast the partners come together. A higher kon goes with faster complex formation. On to B1, for which, in assay [1], binding was put at a Kd of 0.0144 nM, the koff came out at 0.000106 s⁻¹, the kon amounted to 7.35e+06 M⁻¹ s⁻¹ and the “t1/2” value is 1.82 h. For the same molecule, the binding result in assay [2] is recorded as “no binding (tested: 300 nM)”.

B2: E2153.4D7.E11 (antibody, V domains shown)
VH: QVQLQQSGAELVRPGTSVKVSCKASGYAFTNYLIEWVKQRPGQGLEWIGVITPGSGGSNYNEKFKGKATLTADKSSSTAYMQLSSLTSDDSAVYFCARWLDYDWFAYWGQGTLVTVSA
VL: DIKMTQSPSSMYASLGERVTITCKASQDINSYLSWFQQKPGKSPKTLIYRANRLVDGVPSRFSGSGSGQDYSLTISSLEYEDMGIYYCRQCDEFPSTFGGGTKLEIK
notes: Mouse hybridoma antibody; Biotinylated for the Biacore assays; PE-labelled in flow cytometry; also called Clone E11
With B2, in assay [2], the binding result is given as “no binding (tested: 300 nM)”. In addition, in assay [3], the Kd is 0.00936 nM, the koff worked out at 3.65e-05 s⁻¹ and the kon stood at 3.9e+06 M⁻¹ s⁻¹.

B3: E2153.1C4.E2 (antibody, V domains shown)
VH: QVQLQQSGAELVKPGASVKVSCKAFGYTFTTYPIEWMRQNHGKSLEWIGNFHPYNDDTRYNEKFKDKAKLTVEKSSSTVYLELSRLTYDDSAVYYCTRGNDYDLYGMDYWGQGTSVTVSS
VL: DIKMTQFPSSMYASLGERVTITCKASQDINTYLTWFQQKPGKSPKTLIYRANRLVDGVPSRFSGSGSGQDYSLTISSLEYEDMGIYYCLQCDDFPLTFGAGTKLELK
notes: Mouse hybridoma antibody; Biotinylated for the Biacore assays; also called Clone E2
As for B3, in assay [1], the Kd worked out at 0.0167 nM, the koff came to 0.000128 s⁻¹, the kon was found to be 7.65e+06 M⁻¹ s⁻¹ and the “t1/2” value was determined as 1.5 h. In assay [2], the binding result is “no binding (tested: 300 nM)”.

B4: E2153.1D9.B4 (antibody, V domains shown)
VH: QVQLQQSGAELVRPGTSVKVSCKASGYAFTNYLIEWIKQRPGQGLEWIGVINPGSGGINYNEKFKGKATLTSDKSSSTAYMQLSSLTSDDSAVYFCARWLDYDWFAYWGQGTLVTVSA
VL: DIKMTQFPSSMYASVGERVTITCKASQDINSYLSWFQQKPGKSPKTLIYRANRLVDGVPSRFSGSGSGQDYSLTISSLEYEDMGIYYCLQCDEFPFTFGGGTKLEIK
notes: Mouse hybridoma antibody; Biotinylated for the Biacore assays; also called Clone B4
On to B4, for which, in assay [2], the binding result is listed as “no binding (tested: 300 nM)”. For the same molecule, in assay [3], binding was characterised by a dissociation constant (Kd) of 0.00489 nM, the dissociation rate constant (koff) amounted to 1.58e-05 s⁻¹ and the kon turned out to be 3.22e+06 M⁻¹ s⁻¹.
